Measurements: patent publication US20220242950A1 (CANTARGIA, published 2022)
Read-outs that look alike come from different tables or passages of the source.

T1: recombinant hIL1RAP Domain1+2+3 (aa21-367) (human, UniProt Q9NPH3 21-367)
T1 construct: Numbering on Uniprot Q9NPH3
T1 sequence (looked up): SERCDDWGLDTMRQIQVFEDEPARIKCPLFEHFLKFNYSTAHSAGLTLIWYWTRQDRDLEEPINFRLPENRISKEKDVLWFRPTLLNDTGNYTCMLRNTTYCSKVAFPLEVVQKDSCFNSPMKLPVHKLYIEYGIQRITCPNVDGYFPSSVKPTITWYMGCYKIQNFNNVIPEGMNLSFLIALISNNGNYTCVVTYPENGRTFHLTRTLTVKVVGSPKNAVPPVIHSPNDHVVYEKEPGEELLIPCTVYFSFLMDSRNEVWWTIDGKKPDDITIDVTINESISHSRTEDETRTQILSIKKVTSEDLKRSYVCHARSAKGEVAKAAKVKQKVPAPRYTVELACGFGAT

T2: human IL1RAP on the cell surface (human, UniProt Q9NPH3 21-570)
T2 sequence (looked up): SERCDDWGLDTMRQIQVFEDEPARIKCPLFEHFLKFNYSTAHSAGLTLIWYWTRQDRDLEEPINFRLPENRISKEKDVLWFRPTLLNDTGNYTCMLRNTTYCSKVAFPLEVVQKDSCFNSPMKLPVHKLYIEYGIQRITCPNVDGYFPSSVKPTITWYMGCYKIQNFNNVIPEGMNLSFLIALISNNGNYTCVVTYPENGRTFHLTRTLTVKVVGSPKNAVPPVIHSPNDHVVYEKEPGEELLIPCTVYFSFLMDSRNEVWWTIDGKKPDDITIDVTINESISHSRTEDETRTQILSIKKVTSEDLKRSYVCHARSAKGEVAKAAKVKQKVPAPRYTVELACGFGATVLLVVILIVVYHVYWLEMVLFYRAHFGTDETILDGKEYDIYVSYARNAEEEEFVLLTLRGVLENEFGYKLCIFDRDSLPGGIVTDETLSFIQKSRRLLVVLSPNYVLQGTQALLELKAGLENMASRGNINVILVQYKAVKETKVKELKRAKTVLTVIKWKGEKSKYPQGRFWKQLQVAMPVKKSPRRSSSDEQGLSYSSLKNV

T3: recombinant mf IL1RAP aa21-367 (cynomolgus monkey (Macaca fascicularis), UniProt A0A2K5X5J5 21-367)
T3 construct: also called cynomolgus monkey IL1RAP; cyno IL1RAP
T3 sequence: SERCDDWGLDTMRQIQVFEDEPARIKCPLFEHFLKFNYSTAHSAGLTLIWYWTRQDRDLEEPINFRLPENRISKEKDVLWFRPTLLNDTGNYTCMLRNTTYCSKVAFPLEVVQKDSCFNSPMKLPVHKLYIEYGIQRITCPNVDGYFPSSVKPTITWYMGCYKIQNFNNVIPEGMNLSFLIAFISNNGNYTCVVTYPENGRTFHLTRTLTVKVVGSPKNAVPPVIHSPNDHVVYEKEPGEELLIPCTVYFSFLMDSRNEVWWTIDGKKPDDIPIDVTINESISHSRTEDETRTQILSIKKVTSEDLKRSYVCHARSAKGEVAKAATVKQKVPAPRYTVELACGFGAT


How the values were obtained:
[1] = target: T1, recombinant hIL1RAP Domain1+2+3 …; experiment: bio-layer interferometry, human IL1RAP
Description: (§1) Affinity measurements were done on BLItz™ Label-Free Protein Analysis System from ForteBio, using the Basic Kinetics module in the BLItz Pro 1.3.1.3 software from Molecular Devices. Protein A biosensors were hydrated in blocking buffer (PBS, 0.5% BSA, 0.05% Tween 20, pH 7.4) for minimum 10 min at room temperature before coating. Protein A biosensors were coated with antibodies by dipping the biosensors in 200 μl of antibody solution (10 μg/ml in blocking buffer) for 30 min at room temperature. The sensors were then incubated in 200 μl blocking buffer for at least 10 min before use. […] The baseline was made in blocking buffer with a duration time of 30 sec. Association was made for 120 sec in hIL1RAP followed by 120 sec dissociation in blocking buffer.
KD values for affinity towards human IL1RAP are shown in Table 17 for the de-immunized h48D2 variants. Affinity was measured using bio-layer interferometry. […] See also Table 4 for a direct comparison of 48D2, humanized 48D2, and de-immunized h48D2.

[2] = target: T2, human IL1RAP on the cell surface; experiment: cell-based or functional assay
[3] = target: T2, human IL1RAP on the cell surface; experiment: cell-based or functional assay; remark: listed apart in the source
[4] = target: T1, recombinant hIL1RAP Domain1+2+3 …; experiment: binding ELISA, coated recombinant hIL1RAP aa21-367
[5] = target: T1, recombinant hIL1RAP Domain1+2+3 …; experiment: bio-layer interferometry, human IL1RAP; remark: listed apart in the source
Description: as §1
The antibodies were characterized for A) binding (ELISA analysis, human and cynomolgus monkey IL1RAP), B) inhibition of cytokine signaling (HEK-Blue™ assay), C) affinity (Bio-layer interferometry), D) size heterogeneity (SE-HPLC) and E) yield (concentration, A280). […] SE-HPLC was performed using standard procedures and PBS as running buffer. Affinity and cytokine inhibition were measured as previously described in Example 10. All 25 humanized clones were analyzed for blocking activity on IL-1α, IL-1β and IL-33 signaling while only the clones that had retained the inhibitory activity similar to chimeric 48D2 were analyzed for IL-36 inhibition.
KD values for affinity towards human IL1RAP are shown in Table 11 for the humanized 48D2 variants. Affinity was measured using bio-layer interferometry. […] See also Table 4 for a direct comparison of chimeric 48D2, humanized 48D2 variant VH5:VL4, and a humanized and de-immunized 48D2 variant VH5.GL:VL4.

[6] = target: T3, recombinant mf IL1RAP aa21-367; experiment: binding ELISA, coated recombinant mf IL1RAP aa21-367

Binder | Kd [1] [pM] | IC50 of IL-1α signaling (HEK-Blue assay) [2] [pM] | IC50 of IL-1β signaling (HEK-Blue assay) [2] [pM] | IC50 of IL-33 signaling (HEK-Blue assay) [2] [pM] | IC50 of IL-36α signaling (HEK-Blue assay) [2] [pM] | IC50 of IL-36β signaling (HEK-Blue assay) [2] [pM] | IC50 of IL-36γ signaling (HEK-Blue assay) [2] [pM] | IC50 of IL-1β signaling (HEK-Blue assay) [3] [pM] | IC50 of IL-33 signaling (HEK-Blue assay) [3] [pM] | IC50 [4] [µg/mL] | Kd [5] [pM] | IC50 [6] [µg/mL]
h48D2 VH5.SK:VL5.GL (antibody, human IgG1, kappa, L234A L235A, Humanized and de-immunized; also called VL5.GL:VH5.SK) heavy: not shown light: DIQMTQSPSTLSASVGDRVTITCQASESISTALAWYQQKPGQPPKLLIYKASTLPSGVPSRFSGSGSGTEFTLTISDLESDDAATYYCQQGFSSGNVHNAFGGGTEVVVKRTVAAPSVFIFPPSDEQLKSGTASVVCLLNNFYPREAKVQWKVDNALQSGNSQESVTEQDSKDSTYSLSSTLTLSKADYEKHKVYACEVTHQGLSSPVTKSFNRGEC | 2280 | 321 | 117 | 3110 | 204 | 160 | 245 |  |  |  |  | 
h48D2 VH5.AP:VL5.GL (antibody, human IgG1, kappa, L234A L235A, Humanized and de-immunized; also called VL5.GL:VH5.AP) heavy: not shown light: DIQMTQSPSTLSASVGDRVTITCQASESISTALAWYQQKPGQPPKLLIYKASTLPSGVPSRFSGSGSGTEFTLTISDLESDDAATYYCQQGFSSGNVHNAFGGGTEVVVKRTVAAPSVFIFPPSDEQLKSGTASVVCLLNNFYPREAKVQWKVDNALQSGNSQESVTEQDSKDSTYSLSSTLTLSKADYEKHKVYACEVTHQGLSSPVTKSFNRGEC | 1500 | 204 | 107 | 2970 | 178 | 162 | 190 |  |  |  |  | 
h48D2 VH5.SK:VL5 (antibody, human IgG1, kappa, L234A L235A, Humanized and de-immunized; also called VL5:VH5.SK) heavy: not shown light: APVLTQSPATLEASVGDRVTITCQASESISTALAWYQQKPGQPPKLLIYKASTLPSGVPSRFSGSGSGTEFTLTISDLESDDAATYYCQQGFSSGNVHNAFGGGTEVVVKRTVAAPSVFIFPPSDEQLKSGTASVVCLLNNFYPREAKVQWKVDNALQSGNSQESVTEQDSKDSTYSLSSTLTLSKADYEKHKVYACEVTHQGLSSPVTKSFNRGEC | 2800 | 172 | 61 | 2870 | 136 | 125 | 157 |  |  |  |  | 
h48D2 VH4:VL5 (antibody, human IgG1, kappa, L234A L235A, V domains shown, Humanized; also called VL5:VH4) VH: QVQLQESGPGLVKPSETLSLTCTVSGPSLSHFDITWIRQPPGKGLEWIGTISPGVSTYYASWAKSRFTISVDTSKNQFSLKLTSVTAADTATYYCARGGVGSSWKAFDLWGPGTLVTVSS VL: APVLTQSPATLEASVGDRVTITCQASESISTALAWYQQKPGQPPKLLIYKASTLPSGVPSRFSGSGSGTEFTLTISDLESDDAATYYCQQGFSSGNVHNAFGGGTEVVVKR |  |  |  |  |  |  |  | 272 | 74300 | 0.0258 | 15000 | 0.0244
h48D2 VH5.AP:VL4 (antibody, human IgG1, kappa, L234A L235A, V domains shown, Humanized and de-immunized; also called VL4:VH5.AP) VH: QEQLEESGGGLVKPGGTLSLTCTVSGPSLSHFDITWIRQPPGSGLEWIGTISPGVSTYYASWAKSRVTISVDTSLNTVSLKLSSVTAADTATYFCARGGVGSSWKAFDLWGPGTLVTISS VL: ELVMTQSPSSVSASVGDRVTITCQASESISTALAWYQQKPGKAPKLLIYKASTLPSGVPSRFSGSGSGTDFTLTINSLQPEDFATYYCQQGFSSGNVHNAFGGGTKVEIKR | 1700 | 209 | 122 | 1480 | 132 | 146 | 182 |  |  |  |  | 

The remaining binders from weak to strong by Kd [1], led by results:

Kd [1] [pM] | IC50 of IL-1α signaling (HEK-Blue assay) [2] [pM] | IC50 of IL-1β signaling (HEK-Blue assay) [2] [pM] | IC50 of IL-33 signaling (HEK-Blue assay) [2] [pM] | IC50 of IL-36α signaling (HEK-Blue assay) [2] [pM] | IC50 of IL-36β signaling (HEK-Blue assay) [2] [pM] | IC50 of IL-36γ signaling (HEK-Blue assay) [2] [pM] | IC50 of IL-1β signaling (HEK-Blue assay) [3] [pM] | IC50 of IL-33 signaling (HEK-Blue assay) [3] [pM] | IC50 [4] [µg/mL] | Kd [5] [pM] | IC50 [6] [µg/mL] | Binder
2000 | 213 | 99 | 5440 | 143 | 108 | 170 |  |  |  |  |  | h48D2 VH5.SK:VL4 (antibody, human IgG1, kappa, L234A L235A, V domains shown, Humanized and de-immunized; also called VL4:VH5.SK) VH: QEQLEESGGGLVKPGGTLSLTCTVSGPSLSHFDITWIRQAPGKGLEWIGTISPGVSTYYASWAKSRVTISVDTSLNTVSLKLSSVTAADTATYFCARGGVGSSWKAFDLWGPGTLVTISS VL: ELVMTQSPSSVSASVGDRVTITCQASESISTALAWYQQKPGKAPKLLIYKASTLPSGVPSRFSGSGSGTDFTLTINSLQPEDFATYYCQQGFSSGNVHNAFGGGTKVEIKR
1960 | 178 | 98 | 1680 | 149 | 134 | 191 |  |  |  |  |  | h48D2 VH5.AP:VL5 (antibody, human IgG1, kappa, L234A L235A, Humanized and de-immunized; also called VL5:VH5.AP) heavy: not shown light: APVLTQSPATLEASVGDRVTITCQASESISTALAWYQQKPGQPPKLLIYKASTLPSGVPSRFSGSGSGTEFTLTISDLESDDAATYYCQQGFSSGNVHNAFGGGTEVVVKRTVAAPSVFIFPPSDEQLKSGTASVVCLLNNFYPREAKVQWKVDNALQSGNSQESVTEQDSKDSTYSLSSTLTLSKADYEKHKVYACEVTHQGLSSPVTKSFNRGEC
1870 | 214 | 99.9 | 2460 | 128 | 135 | 129 |  |  |  |  |  | h48D2 VH5.GL:VL5 (antibody, human IgG1, kappa, L234A L235A, Humanized and de-immunized; also called VL5:VH5.GL) heavy: not shown light: APVLTQSPATLEASVGDRVTITCQASESISTALAWYQQKPGQPPKLLIYKASTLPSGVPSRFSGSGSGTEFTLTISDLESDDAATYYCQQGFSSGNVHNAFGGGTEVVVKRTVAAPSVFIFPPSDEQLKSGTASVVCLLNNFYPREAKVQWKVDNALQSGNSQESVTEQDSKDSTYSLSSTLTLSKADYEKHKVYACEVTHQGLSSPVTKSFNRGEC
752 | 236 | 105 | 7830 | 158 | 165 | 217 |  |  |  |  |  | h48D2 VH5:VL5.GL (antibody, human IgG1, kappa, L234A L235A, Humanized and de-immunized; also called VL5.GL:VH5) heavy: not shown light: DIQMTQSPSTLSASVGDRVTITCQASESISTALAWYQQKPGQPPKLLIYKASTLPSGVPSRFSGSGSGTEFTLTISDLESDDAATYYCQQGFSSGNVHNAFGGGTEVVVKRTVAAPSVFIFPPSDEQLKSGTASVVCLLNNFYPREAKVQWKVDNALQSGNSQESVTEQDSKDSTYSLSSTLTLSKADYEKHKVYACEVTHQGLSSPVTKSFNRGEC
